In test [1] the target is Sema-AP binding sites / Sema III receptor(s) on NGF-dependent rat E14 DRG sensory neurons. As to the kind of experiment: whole cell binding, Scatchard analysis, dissociated rat E14 DRG neurons.
Test [2] concerns the target T1, rat neuropilin (neuropilin-1), full length (rat, UniProt Q9QWJ9 22-922).
T1 construct: Expressed transiently on COS cells from pMT21-neuropilin
Description: whole cell binding, Scatchard analysis, COS cells transiently expressing neuropilin. The protocol: Because Coll-1 elicits biological effects at sub-nanomolar concentrations (Luo et al., 1993), we predicted that a bona fide Sema III receptor should bind to Sema III with high affinity. To determine the affinity of Sema-AP for neuropilin, neuropilin was transiently expressed in COS cells, and whole cell binding analyses were performed two days later (FIG. 3A). For comparison, the affinity of Sema-AP for its receptor(s) present on NGF-dependent sensory neurons prepared from dissociated E14 DRG was also determined (FIG. 3B). […] These binding affinities are similar to those recently described for netrins and their receptors (Keino-Masu et al., 1996; Leonardo et al., 1997) and Eph receptors and their ligands (Cheng and Flanagan, 1994; Monschau et al., 1997), and they are consistent with a role for neuropilin in Sema III-mediated growth cone collapse and in repulsive guidance of DRG neurons during neurodevelopment.
COS cells were transfected with 2 μg of pMT21-neuropilin, an expression vector encoding neuropilin, or either no DNA or the empty pMT21 expression vector using Lipofectamine (BRL), recovered in growth media, and then grown for 48 hours prior to binding analysis. Dissociated DRG neurons were cultured from E14 DRGs. […] Quantitiative cell surface binding was done essentially as described (Flanagan and Leder, 1990).

For test [3], the target named is T1, rat neuropilin (neuropilin-1), full …. Description: AP staining of transfected COS cells. The protocol: FIGS. 1A to 1F. Sema-AP binds to neuropilin. COS cells were transfected with an expression vector encoding neuropilin (FIGS. 1A–1C) or the empty vector (FIG. 1D). After two days, cells were incubated with Sema-AP (FIG. 1A) or SEAP (FIG. 1B) and then processed for alkaline phosphatase activity, or cells were fixed and subjected to immunocytochemistry using anti-neuropilin IgG (FIGS. 1C and 1D). No neuropilin immunoreactivity was detected when COS cells expressing neuropilin were incubated with pre-immune IgG. (FIG. 1E) Anti-neuropilin immunoblot analysis of whole cell extracts prepared from COS cells that were transfected with the empty expression vector (lane 1) or an expression vector encoding neuropilin (lane 2). (FIG. 1F) Sema-AP binds directly to the extracellular domain of neuropilin. Either Sema-AP or SEAP was incubated with soluble myc-tagged neuropilin extracellular domain (myc-neuropilin^ex). Then, myc-neuropilin^ex was immunoprecipitated with an antibody directed against the myc epitope, and alkaline phosphatase activity in the immune complex was determined as described in the Examples. AP activity was measured as described in the Examples and is reported as OD$405$/second. Shown are the means +/− SEM of three independent experiments. Scale bar=25 μm.

Test [4] concerns the target T2, myc-tagged soluble neuropilin extracellular domain (myc-neuropilin^ex) (rat, UniProt Q9QWJ9 22-855).
T2 construct: Expressed in COS cells and used as culture medium
T2 sequence: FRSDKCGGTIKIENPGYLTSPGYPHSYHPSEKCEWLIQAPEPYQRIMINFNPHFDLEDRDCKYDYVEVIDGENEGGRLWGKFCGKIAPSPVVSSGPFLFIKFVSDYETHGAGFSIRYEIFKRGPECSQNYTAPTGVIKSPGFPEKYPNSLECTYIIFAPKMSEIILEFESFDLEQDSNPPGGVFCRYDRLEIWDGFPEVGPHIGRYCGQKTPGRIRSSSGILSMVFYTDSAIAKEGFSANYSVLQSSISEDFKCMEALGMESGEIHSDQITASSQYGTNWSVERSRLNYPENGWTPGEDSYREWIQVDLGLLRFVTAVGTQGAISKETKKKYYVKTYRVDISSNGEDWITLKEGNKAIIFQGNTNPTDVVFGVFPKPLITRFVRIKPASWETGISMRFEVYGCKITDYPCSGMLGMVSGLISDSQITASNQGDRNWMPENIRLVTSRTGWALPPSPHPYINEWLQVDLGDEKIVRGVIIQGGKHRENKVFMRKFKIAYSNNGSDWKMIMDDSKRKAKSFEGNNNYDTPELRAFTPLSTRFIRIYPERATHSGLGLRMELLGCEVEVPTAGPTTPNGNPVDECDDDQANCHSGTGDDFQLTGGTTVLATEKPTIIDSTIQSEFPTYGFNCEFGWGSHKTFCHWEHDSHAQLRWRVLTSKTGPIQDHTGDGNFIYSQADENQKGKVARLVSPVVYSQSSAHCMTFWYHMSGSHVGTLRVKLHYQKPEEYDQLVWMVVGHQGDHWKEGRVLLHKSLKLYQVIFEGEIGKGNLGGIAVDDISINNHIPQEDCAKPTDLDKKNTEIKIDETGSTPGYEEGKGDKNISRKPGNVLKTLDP
As to the kind of experiment: co-immunoprecipitation with anti-myc antibody, AP activity. The protocol:
Therefore, we next asked whether Sema-AP binds directly to neuropilin in a co-immunoprecipitation assay. For these experiments, an N-terminal myc-tagged neuropilin protein lacking the neuropilin transmembrane and intracellular domains (myc-neuropilin^ex) was used to assess whether the extracellular domain of neuropilin can directly interact with Sema III. Myc-neuropilin^ex was expressed in COS cells and the tissue culture medium was then incubated with either Sema-AP or SEAP alone. Upon precipitation of the myc-neuropilin^ex with a monoclonal antibody directed against the myc epitope, co-precipitation of Sema-AP was determined by the presence of AP activity in the immune complex (FIG. 1F). In contrast, no AP activity above background levels was detected in anti-myc immune complexes collected from samples in which myc-neuropilin was incubated with SEAP alone.
Co-precipitation of Sema-AP and the Secreted, Extracellular Domain of Neuropilin COS cell supernatant containing myc-neuropilin^ex, 293 EBNA cell supernatant containing SEAP, or 293 EBNA cell supernatant containing Sema-AP was filter-sterilized and concentrated. Samples containing equal amounts of control supernatants or supernatants containing myc-neuropilin^ex were mixed with samples containing either Sema-AP or SEAP (equal amounts of AP activity). These mixtures were incubated at room temperature for 2 hours. […]

B1: H-Sema III-alkaline phosphatase fusion protein (Sema-AP) (ligand, human, UniProt Q14563 21-771, looked up)
chain: NYQNGKNNVPRLKLSYKEMLESNNVITFNGLANSSSYHTFLLDEERSRLYVGAKDHIFSFDLVNIKDFQKIVWPVSYTRRDECKWAGKDILKECANFIKVLKAYNQTHLYACGTGAFHPICTYIEIGHHPEDNIFKLENSHFENGRGKSPYDPKLLTASLLIDGELYSGTAADFMGRDFAIFRTLGHHHPIRTEQHDSRWLNDPKFISAHLISESDNPEDDKVYFFFRENAIDGEHSGKATHARIGQICKNDFGGHRSLVNKWTTFLKARLICSVPGPNGIDTHFDELQDVFLMNFKDPKNPVVYGVFTTSSNIFKGSAVCMYSMSDVRRVFLGPYAHRDGPNYQWVPYQGRVPYPRPGTCPSKTFGGFDSTKDLPDDVITFARSHPAMYNPVFPMNNRPIVIKTDVNYQFTQIVVDRVDAEDGQYDVMFIGTDVGTVLKVVSIPKETWYDLEEVLLEEMTVFREPTAISAMELSTKQQQLYIGSTAGVAQLPLHRCDIYGKACAECCLARDPYCAWDGSACSRYFPTAKRRTRRQDIRNGDPLTHCSDLHHDNHHGHSPEERIIYGVENSSTFLECSPKSQRALVYWQFQRRNEERKEEIRVDDHIIRTDQGLLLRSLQQKDSGNYLCHAVEHGFIQTLLKVTLEVIDTEHLEELLHKDDDGDGSKTKEMSNSMTPSQKVWYRDFMQLINHPNLNTMDEFCEQVWKRDRKQRRQRPGHTPGNSNKWKHLQENKKGRNRRTHEFERAPRSV
notes: Made in 293 EBNA cells from pCEP4 and used as supernatant; also called Sema III-AP; Sema III-secreted placental alkaline phosphatase fusion protein; not shown: secreted placental alkaline phosphatase of vector pAPtag-1 (Flanagan and Leder, 1990), C-terminal to Sema III; limits an
In general, Kd refers to a measure of binding affinity in units of concentration. Take B1: in test [1], the binding sites per cell (binding sites per cell) was 20000. The Kd in test [2] is ~1.5 nM.

B2: secreted placental alkaline phosphatase (SEAP) (enzyme, UniProt P05187 23-511, looked up)
chain: IIPVEEENPDFWNREAAEALGAAKKLQPAQTAAKNLIIFLGDGMGVSTVTAARILKGQKKDKLGPEIPLAMDRFPYVALSKTYNVDKHVPDSGATATAYLCGVKGNFQTIGLSAAARFNQCNTTRGNEVISVMNRAKKAGKSVGVVTTTRVQHASPAGTYAHTVNRNWYSDADVPASARQEGCQDIATQLISNMDIDVILGGGRKYMFRMGTPDPEYPDDYSQGGTRLDGKNLVQEWLAKRQGARYVWNRTELMQASLDPSVTHLMGLFEPGDMKYEIHRDSTLDPSLMEMTEAALRLLSRNPRGFFLFVEGGRIDHGHHESRAYRALTETIMFDDAIERAGQLTSEEDTLSLVTADHSHVFSFGGYPLRGSSIFGLAPGKARDRKAYTVLLYGNGPGYVLKDGARPDVTESESGSPEYRQQSAVPLDEETHAGEDVAVFARGPQAHLVHGVQEQTFIAHVMAFAACLEPYTACDLAPPAGTTDAAHPG
notes: Control for the AP part of Sema-AP
As for B2, the binding result in test [3] and in test [4] was “no binding” each time.

These data come from US6428965 (Johns Hopkins, dated 2002).
